System: MS2 coat protein
Experiment: apparent KD of MS2 coat protein; designed switch direction (-1 OFF switch, 1 ON switch): -1; higher = weaker reporter binding
How it was run: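 The buffer was Tris-HCl pH 7.5 with KCl, MgCl2, BSA, DTT, tRNA and Tween-20. In it, SNAP-549-labelled MS2 coat protein was titrated in doubling steps from 0.7 or 1.5 nM to 3 µM over chip-bound RNA switches transcribed by stalled E. coli RNA polymerase on Illumina chips. Apparent KD is the per-design median over clusters of curve fits to normalised fluorescence.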

[1] = input ligand: microRNA oligo, concentration not stated
[2] = Eterna round: R95, input ligand: microRNA oligo, concentration not stated
[3] = Eterna round: R95, input ligand: FMN 200 uM
[4] = Eterna round: R95, input ligand: none

Which results are given for “GUUGUUUAUGUAGGAUAUGCCUGGCGUGCCUUUGCAGAAGGACAUGAGGAUCACCCAUGUAACAUGAGGCUCACCCAUGUCGCC [salish99_ExNG1_r04_108] (Eterna round: R96, puzzle: Exclusion NG 1)”?
apparent KD of MS2 coat protein (input ligand: FMN 200 uM): 220 nM; apparent KD of MS2 coat protein [1]: 72.6 nM; apparent KD of MS2 coat protein (input ligand: none): 160 nM

How did the “apparent KD of MS2 coat protein” value [2] turn out when “UAGAUGGGAGGAUAUACGUAGAUACAGAUUCGUGUAGUGCUACAUGAGGAUCACCCAUGUAGAAGGCCCGUCUU [JL-ex2-2.23 Mayanne mod] (puzzle: Exclusion 2)” was run?
Its value is 13.1 nM.

For “CUUAAACAUGAGGAUCACCCAUGUCAGGAUAUGAUACUAUGUACUUCGGUACAUAGUAUCAGAAGGGAUAUGAA [Ex1-3: 64] (puzzle: Exclusion 1)”, which “apparent KD of MS2 coat protein” value [2] is on record?
The value was 43.1 nM.

With “UGUUGGUACGUAGGAUAUCCACCAACAGGUGGAAGGAUAUGGAAACAGAAGGUUCGCCAACAGGCGGAGAAGGACGUGGUAACU [pwkr exNG2 2xF7 2xFMN.24] (Eterna round: R96, puzzle: Exclusion NG 2)” as the sequence, how does the “apparent KD of MS2 coat protein” value (input ligand: FMN 200 uM) read?
Its value is 126 nM.

What about the “apparent KD of MS2 coat protein” value [1] of the same sequence?
Its value is 212 nM.

What about the “apparent KD of MS2 coat protein” value (input ligand: none) of the same sequence?
The value was 255 nM.

For “UUGCAGUCGUCAGGAUAUAGUAUUACGGCCUUUCAUUUCUUCAUACAUGAGGAUCACCCAUGUCGCUAGAAGGGCUUCUCGCUU [salish99_ExNG2_r04_109] (Eterna round: R96, puzzle: Exclusion NG 2)”, which “apparent KD of MS2 coat protein” value (input ligand: FMN 200 uM) is on record?
Its value is 15.3 nM.

What about the “apparent KD of MS2 coat protein” value [1] of the same sequence?
Its value is 14.6 nM.

What about the “apparent KD of MS2 coat protein” value (input ligand: none) of the same sequence?
Its value is 17.6 nM.

For “AUUGUGUGAGGAUAUUAGUAGUAAAUAAAUAAAAUUAUUACUGAGAAGGCACAUGAGGAUCACCCAUGUUCCUU [Salish 062 v5] (Eterna round: R97, puzzle: Exclusion 4)”, which “apparent KD of MS2 coat protein” value (input ligand: FMN 200 uM) is on record?
The value was 131 nM.

And the “apparent KD of MS2 coat protein” value (input ligand: none)?
Its value is 18.9 nM.

Which “apparent KD of MS2 coat protein” value [3] does the source give for “GGUUGGCGAGGAUAUACAUGAGGAUCACCCAUGUGAGAGAAAAAAGUGAGGAAGAAAAGUAGAAGGCGCUGACC [salish99_ex3_r3_048] (puzzle: Exclusion 3)” here?
The value was 256 nM.

And the “apparent KD of MS2 coat protein” value [2]?
The value was 44.6 nM.

What about the “apparent KD of MS2 coat protein” value [4] of the same sequence?
The value was 53.9 nM.

Which “apparent KD of MS2 coat protein” value (input ligand: FMN 200 uM) does the source give for “GUUUCACAUGAGGAUCACCCAUGUGAGGAUAUGGAUUCGCUGGCCGUAGCCAGUGGAUCCAGAAGGCGCGUGAU [JL-ex1-4.21] (Eterna round: R97, puzzle: Exclusion 1)” here?
Its value is 60.5 nM.

What about the “apparent KD of MS2 coat protein” value (input ligand: none) of the same sequence?
Its value is 61.7 nM.

For “AAAAUGUAAGGAUAUAGCCGGAACCCAGGGUUUGGACCCGGCUAGAAGGUACAUGAGGAUCACCCAUGUAAGAA [Excls4-VII] (puzzle: Exclusion 4)”, which “apparent KD of MS2 coat protein” value [2] is on record?
Its value is 17.4 nM.

Which “apparent KD of MS2 coat protein” value (input ligand: FMN 200 uM) does the source give for “UUUUAGUAAGGAUAUGGUUAGAUCUACUUCGGUAGAUCUAACCAGAAGGUACAUGAGGAUCACCCAUGUAGAUA [Mod of Brourd 19 - Jieux - Exclusion 4] (Eterna round: R97, puzzle: Exclusion 4)” here?
Its value is 25.2 nM.

What about the “apparent KD of MS2 coat protein” value (input ligand: none) of the same sequence?
Its value is 25.3 nM.

For “GAAAACGCAGAGGAUAUUUCAGAUCAAAGCUGCAAAGAAGGCUGCACAUGAGGAUCACCCAUGUGGUCUUAAAA [Mod of Quesina 2 - Jieux - Exclusion 6] (Eterna round: R97, puzzle: Exclusion 6)”, which “apparent KD of MS2 coat protein” value (input ligand: FMN 200 uM) is on record?
Its value is 337 nM.

And the “apparent KD of MS2 coat protein” value (input ligand: none)?
The value was 23.8 nM.

How did the “apparent KD of MS2 coat protein” value (input ligand: FMN 200 uM) turn out when “UAUUAAGCAAGCAGAUCCCACAUGAGGAUCACCCAUGUGCUCGUCUUAUAAGGUACUGUGACAAAAGUCACGGUACC [Mat - Sensor, turn-off var - Eli Mod - D74] (Eterna round: R97, puzzle: Sensor, turn-off variant 1)” was run?
The value was 121 nM.

What about the “apparent KD of MS2 coat protein” value (input ligand: none) of the same sequence?
Its value is 135 nM.

What does the source list for “AGUGCGUAUGUGAGGAUAUGCUGGUCCUUGGAUCAGCAGAAGGCACAUGAGGAUCACCCAUGUGGUGUCGUACG [salish99_Bmod_Ex4_004] (puzzle: Brourd's mod of Exclusion 4)”?
apparent KD of MS2 coat protein [3]: 245 nM; apparent KD of MS2 coat protein [2]: 51.8 nM; apparent KD of MS2 coat protein [4]: 60 nM

With “GUAUAUAGUGUGAGGAUAUGCUGGUCCUUGGAUCAGCAGAAGGCACAUGAGGAUCACCCAUGUAGUUUAUUAUG [Mat - Exclusion 4 - JL Mod - D8] (puzzle: Brourd's mod of Exclusion 4)” as the sequence, how does the “apparent KD of MS2 coat protein” value [2] read?
The value was 20 nM.

“CGAUGUUAUGUCAGGAUAUGCAUUGCGAAAGCAAUGCAGAAGGGACAUGAGGAUCACCCAUGUCCUAACCAUCG [Omei A 4] (puzzle: Brourd's mod of Exclusion 4)” was tested. Which “apparent KD of MS2 coat protein” value [2] did it give?
The value was 11.1 nM.

What does the source list for “GGGCCCGGUGUGAGGAUAUGAGUUCGGAAAUGAGCUUAGAAGGCACAUGAGGAUCACCCAUGUAAGCCGGGCCC [-34.2, -32.1 kcal, A 26%, 1-0] (Eterna round: R97, puzzle: Brourd's mod of Exclusion 4)”?
apparent KD of MS2 coat protein (input ligand: FMN 200 uM): 14.3 nM; apparent KD of MS2 coat protein (input ligand: none): 35.6 nM

“AAGAAGAUAGGAUAUACGAGGAGAGGAGAGAGAAGGUGAGGACAUGAGGAUCACCCAUGUAGAAGGAUCAGGAA [JR_Exclu2_Sub064] (puzzle: Exclusion 2)” was tested. Which “apparent KD of MS2 coat protein” value [3] did it give?
Its value is 81.3 nM.

And the “apparent KD of MS2 coat protein” value [2]?
Its value is 88 nM.

And the “apparent KD of MS2 coat protein” value [4]?
The value was 89.9 nM.

“AAUAGCAAGCAAGAUCCUAACAUGAGGAUCACCCAUGUGCUCGUCUUGUAAAGUACUAUCACGAAAGUGAUAGUACA [Sensor 3, v1 - 49] (puzzle: Sensor v3, turn-off variant 1)” was tested. Which “apparent KD of MS2 coat protein” value [3] did it give?
Its value is 29.7 nM.

What about the “apparent KD of MS2 coat protein” value [2] of the same sequence?
The value was 211 nM.

And the “apparent KD of MS2 coat protein” value [4]?
Its value is 31.9 nM.

For “CGAUGCUCGUGCCCACAUGAGGAUCACCCAUGUCGAGUCAGCGAGGAUAUCGGUGGCACAUAGUACGAGAAGGCGCGGACCUGA [Ex NG3 #18] (Eterna round: R96, puzzle: Exclusion NG 3)”, which “apparent KD of MS2 coat protein” value (input ligand: FMN 200 uM) is on record?
Its value is 17.7 nM.

And the “apparent KD of MS2 coat protein” value [1]?
Its value is 11.5 nM.

What about the “apparent KD of MS2 coat protein” value (input ligand: none) of the same sequence?
The value was 17 nM.

“UUUUUAUAUGAAGGAUAUACUUAACAUGAGGAUCACCCAUGUGGUGUUGUGAGUGAGUGAGUUUAGUAGAAGGUCAUUUCUUUU [JMF's solution 78] (Eterna round: R96, puzzle: Exclusion NG 2)” was tested. Which “apparent KD of MS2 coat protein” value (input ligand: FMN 200 uM) did it give?
The value was 440 nM.

And the “apparent KD of MS2 coat protein” value [1]?
Its value is 411 nM.

What about the “apparent KD of MS2 coat protein” value (input ligand: none) of the same sequence?
The value was 462 nM.

“CAGUACUGAGGAUAUACAUGAGGAUCACCCAUGUGGGAGAUACUAGUGAGGUCGAUUAGUAGAAGGCAGUACUG [Mat X3R4 m21] (Eterna round: R97, puzzle: Exclusion 3)” was tested. Which “apparent KD of MS2 coat protein” value (input ligand: FMN 200 uM) did it give?
The value was 903 nM.

What about the “apparent KD of MS2 coat protein” value (input ligand: none) of the same sequence?
The value was 184 nM.

Which results are given for “ACAUGAGGAUCACCCAUGUCCGGCUGGUCUGUUCCGGCUGUCGAGGAUAUAGUCCGGUGUUCGCGCUAGAAGGCGAGGGCUGGA [Aenatbe mod 48] (Eterna round: R96, puzzle: Exclusion NG 3)”?
apparent KD of MS2 coat protein (input ligand: FMN 200 uM): 88 nM; apparent KD of MS2 coat protein [1]: 29.9 nM; apparent KD of MS2 coat protein (input ligand: none): 43.6 nM

Which results are given for “AUAUAGCGAGGAUAUACAUGAGGAUCACCCAUGUAAUAAAUAUAUAUAUUUAUAUUAUGUAGAAGGCGCUAUAU [-18.5, -17.2 kcal, 39% A] (Eterna round: R97, puzzle: Exclusion 3)”?
apparent KD of MS2 coat protein (input ligand: FMN 200 uM): 30.3 nM; apparent KD of MS2 coat protein (input ligand: none): 14.5 nM

For “ACAUGAGGAUCACCCAUGUGAAACCAAUGGCUGACUUUGAGCUAGGAUAUUCGUGCAUAUCAAACGAAGAAGGAGCAUUACUGG [Deportation 97 - Jieux - Exclusion NG 3] (Eterna round: R96, puzzle: Exclusion NG 3)”, which “apparent KD of MS2 coat protein” value (input ligand: FMN 200 uM) is on record?
Its value is 36.9 nM.

And the “apparent KD of MS2 coat protein” value [1]?
Its value is 31.5 nM.

What about the “apparent KD of MS2 coat protein” value (input ligand: none) of the same sequence?
The value was 34.8 nM.

Which results are given for “UUGGUGUCAGGAUAUGCACAGGUCGCACAAAUUGCAGCCUAGCAGAAGGGACAUGAGGAUCACCCAUGUACUCU [EX4 B.21] (Eterna round: R97, puzzle: Exclusion 4)”?
apparent KD of MS2 coat protein (input ligand: FMN 200 uM): 30 nM; apparent KD of MS2 coat protein (input ligand: none): 18.8 nM

— the supplement of paper PMC9170038
